Data: patent publication US20090298778A1
Non-standard residues stand in square brackets, D forms with d. No end group written: not given here. Cit = NC(=O)NCCC[C@H](N)C(=O)O

B1: mixture of α36-50cit38, 42 and β60-74cit60, 72, 74 peptides (peptide)
peptide 1: GP[Cit]VVE[Cit]HQSACKDS
peptide 2: [Cit]PAPPPISGGGY[Cit]A[Cit]-NH2
modifications: also: mixture of two free peptides, not a complex
B2: β60-74cit60, 72, 74 peptide (peptide)
peptide: [Cit]PAPPPISGGGY[Cit]A[Cit]-NH2
modifications: N-terminus assumed
SMILES: CC[C@H](C)[C@H](NC(=O)[C@@H]1CCCN1C(=O)[C@@H]1CCCN1C(=O)[C@@H]1CCCN1C(=O)[C@H](C)NC(=O)[C@@H]1CCCN1C(=O)[C@@H](N)CCCNC(N)=O)C(=O)N[C@@H](CO)C(=O)NCC(=O)NCC(=O)NCC(=O)N[C@@H](Cc1ccc(O)cc1)C(=O)N[C@@H](CCCNC(N)=O)C(=O)N[C@@H](C)C(=O)N[C@@H](CCCNC(N)=O)C(N)=O
B3: α36-50cit38, 42 peptide (peptide)
peptide: GP[Cit]VVE[Cit]HQSACKDS

How the values were obtained:
[1] = target: mixture of ACPA-positive IgGs (IgG fraction of an equal-parts mixture of 38 sera from patients suffering from RA having a high serum ACPA titer); assay: competition ELISA: soluble competitor preincubated 2 h with IgG ACPA+ (16 µg/ml), binding to coated citrullinated fibrinogen
[2] = target: mixture of ACPA-positive IgGs (IgG fraction of an equal-parts mixture of 38 sera from patients suffering from RA having a high serum ACPA titer); assay: cell-based or functional assay

Row | Binder | percentage inhibition (plateau value) [1] [%] | amount of TNF-α secreted by macrophages; peptide at 0.8 mg/ml as competitor of IC formation on coated citrullinated fibrinogen [2] [pg/mL] | amount of TNF-α secreted by macrophages; peptide at 4 mg/ml as competitor of IC formation on coated citrullinated fibrinogen [2] [pg/mL]
1 | B1 | 70 |  | 
2 | B2 | 60 | 40 | < 20
3 | B3 | 15 |  | 
